Results on 5 molecules are retold here after article PMC8568140, “Assembly of infectious Kaposi’s sarcoma-associated herpesvirus progeny requires formation of a pORF19 pentamer” (PLoS Biology, 2021).

Data set [1] concerns the target Baculovirus-produced KSHV capsids lacking the portal protein pORF43, Q2HRA7;Q2HRB6. The data set is described as follows: western blot of gradient-purified capsids (capsid assembly assay in insect cells), band intensity quantified. The following applies: 3 independent biological replicates; capsid loading normalized to pORF25-V5 and pORF26; parent: est. 100; read off a plot. For orientation: A western blot detects proteins with antibodies after separation by electrophoresis.

Data set [2] concerns the molecule itself. In words: crystal structure; hanging drop, 18°C, 0.1 M HEPES pH 7.5, 1.69 M lithium acetate (native, P212121, 2.6 Å); selenomethionine derivative in 0.1 M MES pH 7.4, 2 M lithium acetate (P21, P6322).
Data set [3] deals with the molecule itself. The data set is described as follows: AUC; sedimentation velocity, 40,000 rpm, 20°C, LiAc buffer with 50 mM HEPES pH 7.5 and 0.5 M lithium acetate; interface mutants at 127 μM, oxidized pORF19_(KCTD)CC at 11 μM.

As for “GFP-tagged wt pORF19 (ORF19-GFP) of KSHV V463W; L465Y”, in data set [1], the percent of parent (% of wt pORF19) amounted to 91.
For the molecule “GFP-tagged wt pORF19 (ORF19-GFP) of KSHV D173A; Q177A”, in data set [1], the percent of parent (% of wt pORF19) was found to be 93.
Consider “GFP-tagged wt pORF19 (ORF19-GFP) of KSHV loop (156MNQNQ160 replaced by a flexible linker)”, for which, in data set [1], the percent of parent (% of wt pORF19) was 92.

B1: KSHV pORF19 carboxyl-terminal domain (pORF19_(KCTD)) (domain or fragment)
chain: ASHRNFTVAIVPGDPHFSVDRDLRGELMPTLYMNQNQWLPSFGPWFISLTDNAMQRRVFPKELKGTVNFQNSTSLKLISHTLTTVASTTADFFADARHLTDTQAALCLVNAYFCQKTSRQLPATPDDLLADLPQKLDLLITQLKQESGPGDFSFTYSNPQERASLAPLNKESRYPTAFFQRHKLHAMMAKAGLFPHNKGTGAPGTAPAMDLVFAITSAMFGSDIPPFSAYQWNLRAGIVALEVFILAYGLLEFGQVARGHPNRRLNLVSLLGPKFQPGALPDPNAPMLKRGQLFSFISEHYIIPTLQANPNAPVSFIFPGIILAALEARSTVSHKQPGPFVNLTGSRFNEIFEILNQQLTFRDPLALLQARTALRLATEEGLDVLLSHPSPPTLLQEIIKSQFGGGDDYDRAYFMVLGCLPVVLAVV
notes: The His tag was removed with carboxypeptidase after a first SEC; Two of the three crystal forms (P21, P6322) were of a selenomethionine derivative; also called wt pORF19_(KCTD); KSHV pORF19 CTD; source: E. coli Rosetta (DE3), purified (HisTrap, SEC); not shown: His tag, C-terminal, cleaved
Broadly, the stoichiometry N is the number of molecules, sites or subunits per partner or assembly. In the case of B1, in data set [2], the “stoichiometry N” value is 5.

B2: oxidized pORF19_(KCTD)CC (KSHV pORF19 CTD with P137C and P461C) (domain or fragment)
chain: ASHRNFTVAIVPGDCHFSVDRDLRGELMPTLYMNQNQWLPSFGPWFISLTDNAMQRRVFPKELKGTVNFQNSTSLKLISHTLTTVASTTADFFADARHLTDTQAALCLVNAYFCQKTSRQLPATPDDLLADLPQKLDLLITQLKQESGPGDFSFTYSNPQERASLAPLNKESRYPTAFFQRHKLHAMMAKAGLFPHNKGTGAPGTAPAMDLVFAITSAMFGSDIPPFSAYQWNLRAGIVALEVFILAYGLLEFGQVARGHPNRRLNLVSLLGPKFQPGALPDPNAPMLKRGQLFSFISEHYIIPTLQANPNAPVSFIFPGIILAALEARSTVSHKQPGCFVNLTGSRFNEIFEILNQQLTFRDPLALLQARTALRLATEEGLDVLLSHPSPPTLLQEIIKSQFGGGDDYDRAYFMVLGCLPVVLAVV
modifications: engineered inter-protomeric disulfide bond between the cysteines introduced at 137 and 461 (oxidized form)
notes: pORF19 of Kaposi's sarcoma-associated herpesvirus, residues 123 to 549, with two prolines changed to cysteines; The protomers of the oxidized form are covalently linked by the engineered disulfide bond; also called pentameric pORF19KCTDCC; source: E. coli Rosetta (DE3), purified as pORF19_(KCTD); oxidized with 2 mM GSSG in 0.5 M lithium acetate, then SEC (Superose 6 Increase); not shown: His tag, …
B2: the “stoichiometry N” value in data set [3] was found to be 5.
